We go through 75 sequences from the supplement of paper PMC7877785.

The nature of the series: self-splicing fitness, log relative to wild type (ln ratio); higher = more splicing; Tetrahymena group I intron in knt gene, E. coli kanamycin selection, DiMSum; sequences stand for … in CUCUCU…GGAGGGAAAAGUUAUCAGGCAUGCACCUGGUAGCUAGUCUUUAAACCAAUAGAUUGCAUCGGUUUAAAAGGCAAGACCGUCAAAUUGCGGGAAAGGGGUCAACAGCCGUUCAGUACCAAGUCUCAGGGGAAACUUUGAGAUGGCCUUGCAAAGGGUAUGGUAAUAAGCUGACGGACAUGGUCCUAACCACGCAGCCAAGUCCUAAGUCAACAGAUCUUCUGUUGAUAUGGAUGCAGUUCACAGACUAAAUGUCGGUCGGGGAAGAUGUAUUCUUCUCAUAAGAUAUAGUCGGACCUCUCCUUAAUGGGAGCUAGCGGAUGAAGUGAUGCAACACUGGAGCCGCUGGGAACUAAUUUGUAUGCGAAAGUAUAUUGAUUAGUUUUGGAGUACUCGUGGUCG
The method, boiled down: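 Library with all eight P1ex-region intron nucleotides randomised, intron inside the knt kanamycin-resistance gene on pET-22b(+), in E. coli BL21(DE3). Cells grew overnight at 37°C or 30°C on LB agar with or without 25 μg/mL kanamycin (plus 100 μg/mL carbenicillin, 50 μM IPTG, 0.2% rhamnose), in six replicate transformations. Pooled colonies were amplicon-sequenced on Illumina HiSeq 2500. DiMSum fitness is the error-weighted combination of wild-type-normalised replicate fold changes, kanamycin versus none.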

± gives the uncertainty stated by the source.

With UAGCAGCAAUAUUACGGGGC, the “self-splicing fitness (ln)” value was -3.58 ± 0.21 (30 °C) and -3.17 ± 0.27 (37 °C).
The like results for AAUAAGCAAUAUUACGUGUA were, in that order, -2.16 ± 0.12 and -1.12 ± 0.11.
As for CAAAAGCAAUAUUACGCUAU, the “self-splicing fitness (ln)” value was -2.78 ± 0.16 (30 °C) and -2.09 ± 0.19 (37 °C).
On the same counts, the results for UAACAGCAAUAUUACGGUCA are -0.282 ± 0.073 and 0.714 ± 0.085.
On to GCCAAGCAAUAUUACGCACA, for which the “self-splicing fitness (ln)” value (30 °C) is -1.07 ± 0.14 and the “self-splicing fitness (ln)” value (37 °C) was -0.724 ± 0.15.
The like results for GUCGAGCAAUAUUACGGUUU were, in that order, -1.86 ± 0.11 and -1.44 ± 0.13.
With CUCGAGCAAUAUUACGGAUU, the “self-splicing fitness (ln)” value by setting is: (30 °C) -3.59 ± 0.19; (37 °C) -2.98 ± 0.27.
Take ACAUAGCAAUAUUACGCGCU: the “self-splicing fitness (ln)” value by setting is: (30 °C) -1.19 ± 0.095; (37 °C) -0.534 ± 0.098.
The like results for CCAUAGCAAUAUUACGCGUU were, in that order, -3.53 ± 0.23 and -2.51 ± 0.24.
Consider GCGUAGCAAUAUUACGCAUC, for which the “self-splicing fitness (ln)” value reads like this: (30 °C) -3.37 ± 0.5; (37 °C) -1 ± 0.4.
For AAGCAGCAAUAUUACGUCAA, the “self-splicing fitness (ln)” value by setting is: (30 °C) -1.1 ± 0.091; (37 °C) -1.36 ± 0.096.
As for UGGCAGCAAUAUUACGUUCU, the “self-splicing fitness (ln)” value is 0.076 ± 0.06 (30 °C) and 0.0497 ± 0.069 (37 °C).
On the same counts, the results for UAAAAGCAAUAUUACGCGCA are -0.512 ± 0.084 and 0.752 ± 0.13.
The like results for AAGUAGCAAUAUUACGCGUU were, in that order, -2.09 ± 0.18 and -0.705 ± 0.17.
On the same counts, the results for UUCAAGCAAUAUUACGACCG are -1.29 ± 0.14 and 0.147 ± 0.18.
Consider UGUGAGCAAUAUUACGUAUC, for which the “self-splicing fitness (ln)” value is -3.75 ± 0.37 (30 °C) and -2.3 ± 0.32 (37 °C).
The like results for GUGCAGCAAUAUUACGUCCC were, in that order, -0.912 ± 0.35 and -0.124 ± 0.26.
As for GUCGAGCAAUAUUACGAUCC, the “self-splicing fitness (ln)” value runs as follows: (30 °C) -1.82 ± 0.17; (37 °C) -0.489 ± 0.22.
On to CGUCAGCAAUAUUACGUACU, for which the “self-splicing fitness (ln)” value (30 °C) is -0.663 ± 0.1 and the “self-splicing fitness (ln)” value (37 °C) is -0.361 ± 0.12.
The like results for CAUCAGCAAUAUUACGGGUG were, in that order, -3.28 ± 0.14 and -2.71 ± 0.2.
With GGCCAGCAAUAUUACGAGUU, the “self-splicing fitness (ln)” value (30 °C) is -0.659 ± 0.1 and the “self-splicing fitness (ln)” value (37 °C) was -1 ± 0.11.
Turning to CCGUAGCAAUAUUACGGAUC, the “self-splicing fitness (ln)” value reads like this: (30 °C) -3.86 ± 0.2; (37 °C) -2.03 ± 0.19.
The like results for AACGAGCAAUAUUACGAGAG were, in that order, -3.41 ± 0.15 and -1.98 ± 0.16.
In the case of CGAAAGCAAUAUUACGUAAU, the “self-splicing fitness (ln)” value was -4.18 ± 0.18 (30 °C) and -2.3 ± 0.12 (37 °C).
For the sequence UAAUAGCAAUAUUACGAAAU, the “self-splicing fitness (ln)” value (37 °C) was -2.07 ± 0.36.
CCCGAGCAAUAUUACGACGU: the “self-splicing fitness (ln)” value is -2.47 ± 0.15 (30 °C) and -0.954 ± 0.13 (37 °C).
On the same counts, the results for CUUAAGCAAUAUUACGACGC are -3.04 ± 0.28 and -2.22 ± 0.4.
For the sequence CAAAAGCAAUAUUACGCUUA, the “self-splicing fitness (ln)” value runs as follows: (30 °C) -3.17 ± 0.23; (37 °C) -2.17 ± 0.15.
On the same counts, the results for AACUAGCAAUAUUACGCUAC are -3.46 ± 0.22 and -1.34 ± 0.14.
The like results for CUAAAGCAAUAUUACGGUCG were, in that order, 0.0851 ± 0.065 and 0.151 ± 0.086.
Turning to AGCGAGCAAUAUUACGGGAC, the “self-splicing fitness (ln)” value (37 °C) was -2.99 ± 0.38.
On to UUGAAGCAAUAUUACGUCCG, for which the “self-splicing fitness (ln)” value by setting is: (30 °C) 0.0359 ± 0.093; (37 °C) 0.4 ± 0.12.
On the same counts, the results for ACACAGCAAUAUUACGUAUA are -3.41 ± 0.13 and -2.5 ± 0.12.
The like results for AGGUAGCAAUAUUACGGCCU were, in that order, -3.7 ± 0.04 and -2.6 ± 0.053.
As to AGGUAGCAAUAUUACGACUU, the “self-splicing fitness (ln)” value reads like this: (30 °C) -0.167 ± 0.014; (37 °C) -0.0309 ± 0.034.
On the same counts, the results for AAAGAGCAAUAUUACGAUUA are -2.18 ± 0.22 and -0.939 ± 0.17.
In the case of CAGGAGCAAUAUUACGUUCG, the “self-splicing fitness (ln)” value reads like this: (30 °C) -0.032 ± 0.12; (37 °C) 0.338 ± 0.15.
On the same counts, the results for GAUUAGCAAUAUUACGCAUU are -2.53 ± 0.14 and -2.25 ± 0.17.
On the same counts, the results for UGAAAGCAAUAUUACGCGCA are -0.0804 ± 0.12 and 0.142 ± 0.15.
The like results for GCUCAGCAAUAUUACGAGGA were, in that order, -0.479 ± 0.12 and -0.741 ± 0.12.
For CCUCAGCAAUAUUACGAGGU, the “self-splicing fitness (ln)” value (30 °C) is -3.38 ± 0.21 and the “self-splicing fitness (ln)” value (37 °C) is -2.62 ± 0.19.
The like results for GUGUAGCAAUAUUACGCACG were, in that order, -3.57 ± 0.27 and -2.25 ± 0.22.
Consider GGAUAGCAAUAUUACGCGCU, for which the “self-splicing fitness (ln)” value was -2.14 ± 0.23 (30 °C) and -0.904 ± 0.23 (37 °C).
On the same counts, the results for AUGCAGCAAUAUUACGUAGC are -3.81 ± 0.37 and -2.34 ± 0.24.
On the same counts, the results for CGGUAGCAAUAUUACGACUC are -1.01 ± 0.32 and 1.23 ± 0.43.
In the case of CGGGAGCAAUAUUACGGGGA, the “self-splicing fitness (ln)” value was -2.04 ± 0.3 (30 °C) and -1.83 ± 0.23 (37 °C).
In the case of GCUCAGCAAUAUUACGGGCG, the “self-splicing fitness (ln)” value by setting is: (30 °C) -1.61 ± 0.071; (37 °C) -1.22 ± 0.085.
On the same counts, the results for UGUAAGCAAUAUUACGUUUC are -3.11 ± 0.22 and -3.02 ± 0.43.
On the same counts, the results for CCACAGCAAUAUUACGGAUG are -1.97 ± 0.082 and -1.19 ± 0.1.
On the same counts, the results for CGAUAGCAAUAUUACGUCUU are -1.49 ± 0.13 and -0.12 ± 0.13.
GGUUAGCAAUAUUACGUGGG: the “self-splicing fitness (ln)” value (30 °C) is -2.93 ± 0.2 and the “self-splicing fitness (ln)” value (37 °C) was -2.54 ± 0.18.
The like results for GCCCAGCAAUAUUACGGGGG were, in that order, -3.34 ± 0.11 and -2.78 ± 0.15.
The like results for GUGUAGCAAUAUUACGUUUG were, in that order, -2.54 ± 0.27 and -1.44 ± 0.28.
Take GAGAAGCAAUAUUACGUCGC: the “self-splicing fitness (ln)” value (30 °C) was -2.17 ± 0.42.
For AUAAAGCAAUAUUACGAUGG, the “self-splicing fitness (ln)” value (30 °C) was -2.15 ± 0.13 and the “self-splicing fitness (ln)” value (37 °C) is -1.03 ± 0.18.
On the same counts, the results for UUUUAGCAAUAUUACGGAGA are -1.93 ± 0.35 and -1.62 ± 0.27.
On the same counts, the results for UUGAAGCAAUAUUACGGCAA are 0.615 ± 0.092 and 0.402 ± 0.12.
On the same counts, the results for AUUAAGCAAUAUUACGUACU are 0.0206 ± 0.094 and 0.125 ± 0.12.
As for AUCCAGCAAUAUUACGCAUA, the “self-splicing fitness (ln)” value by setting is: (30 °C) -1.19 ± 0.12; (37 °C) -0.443 ± 0.12.
The like results for UGCCAGCAAUAUUACGCAAA were, in that order, -2.41 ± 0.19 and -1.5 ± 0.17.
On the same counts, the results for AGAAAGCAAUAUUACGUAAG are -1.61 ± 0.084 and -0.0907 ± 0.095.
On the same counts, the results for UAUCAGCAAUAUUACGCCUG are -0.368 ± 0.1 and -0.425 ± 0.1.
For UAUGAGCAAUAUUACGUGGG, the “self-splicing fitness (ln)” value is, setting by setting: (30 °C) -3.55 ± 0.25; (37 °C) -3.94 ± 0.39.
GUUCAGCAAUAUUACGACAG: the “self-splicing fitness (ln)” value runs as follows: (30 °C) -3.33 ± 0.35; (37 °C) -1.76 ± 0.42.
On the same counts, the results for GAAAAGCAAUAUUACGUUGG are -3.55 ± 0.19 and -2.16 ± 0.16.
On the same counts, the results for ACAGAGCAAUAUUACGAGCA are -3.84 ± 0.28 and -2.83 ± 0.31.
The like results for AUCGAGCAAUAUUACGACGA were, in that order, -0.908 ± 0.099 and -0.324 ± 0.13.
For the sequence GCAGAGCAAUAUUACGACAA, the “self-splicing fitness (ln)” value runs as follows: (30 °C) -1.8 ± 0.46; (37 °C) -0.677 ± 0.43.
GUGAAGCAAUAUUACGGGUG: the “self-splicing fitness (ln)” value reads like this: (30 °C) -1.39 ± 0.075; (37 °C) -0.589 ± 0.11.
The like results for ACUCAGCAAUAUUACGCUGC were, in that order, -3.36 ± 0.3 and -2.24 ± 0.29.
The like results for GCAGAGCAAUAUUACGGGUU were, in that order, -3.83 ± 0.3 and -2.6 ± 0.3.
On the same counts, the results for AGGAAGCAAUAUUACGAACU are -0.35 ± 0.097 and 0.434 ± 0.13.
Take UUACAGCAAUAUUACGACGA: the “self-splicing fitness (ln)” value by setting is: (30 °C) -0.196 ± 0.077; (37 °C) 0.136 ± 0.12.
On the same counts, the results for GAUUAGCAAUAUUACGGUGC are -1.8 ± 0.34 and -1.4 ± 0.32.
On the same counts, the results for AGUGAGCAAUAUUACGUAGA are -3.84 ± 0.23 and -3.38 ± 0.32.
